Binding data for one sequence are collected here from article PMC4278767.

Data set [1] relates to T1, Fis (Pseudomonas putida (strain PaW85?)), ORF:eb421da7.
T1 sequence: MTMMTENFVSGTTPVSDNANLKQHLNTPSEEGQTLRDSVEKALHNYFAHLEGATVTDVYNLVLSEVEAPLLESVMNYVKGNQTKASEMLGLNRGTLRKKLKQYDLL
As to the kind of experiment: EMSA. The settings on record: EMSA: 24 mM Tris/HCl pH 7.5, 50 mM KCl, 10 mM MgCl2, 1 mM CaCl2, 0.1 mM EDTA, 5% glycerol, 0.05 ug/ul BSA, 0.05 ug/ul salmon sperm DNA, 20 ul, 20 min room …. On the technique in general: Mobility shift assays separate free from complexed probe on a gel.

The test system is the same in data set [2]. The data set is described as follows: DNase I footprinting. Particulars: EMSA: 24 mM Tris/HCl pH 7.5, 50 mM KCl, 10 mM MgCl2, 1 mM CaCl2, 0.1 mM EDTA, 5% glycerol, 0.05 ug/ul BSA, 0.05 ug/ul salmon sperm DNA, 20 ul, 20 min room ….

“CGTAACAGAGCCCTTTCAGGGGTCTTACGCACAGCCTCGACCAGGCAGTCGACAAACGGGTGGTTAGGGAGATATAGCAGCCGGTGGGGAAGCAACCAGATGGCTTTCTGGGTTAATCCTTTGGTAGAAAAGCCTCAGCGAAAGATCTA (double strand) [lapF promoter fragment with Fis-F2 (wild type)]”: the binding result in data set [1] and in data set [2] was “binds” each time.
